Patent US20210347867A1 (GEORG AUGUST UNIVERSIT T G TTINGEN STIFTUNG FFENTLICHEN …, published 2021)
Positions count from the first letter of the chain named. Names may count otherwise. Read-outs that look alike come from different tables or passages of the source. One block for each binder: values may come before it.

Legend:
amyloid peptide Aβ4-42 [1] = target: T1, amyloid peptide Aβ4-42 (UniProt P05067 675-713); assay: ELISA, plate coated with Anaspec Aβ4-42, antibody titrated after incubation in PBS or in mouse, human or cynomolgus serum, blank-subtracted OD650
T1 construct: domain: Aβ4-42; Bought synthetic peptide; also called Anaspec Aβ4-42
T1 sequence (P05067 675-713 limits assumed): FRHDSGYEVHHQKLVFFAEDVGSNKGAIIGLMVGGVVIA

amyloid peptide AβpE3-42 [2] = target: T2, amyloid peptide AβpE3-42 (UniProt P05067 674-713, N-terminal pyroglutamate (pE) at Aβ position 3); assay: ELISA, plate coated with AβpE3-42 (PSL), antibody titrated, blank-subtracted OD650
T2 construct: domain: AβpE3-42; Bought synthetic peptide; also called AβpGlu3-42; Aβ(Glp3)3-42
T2 sequence (P05067 674-713 limits assumed): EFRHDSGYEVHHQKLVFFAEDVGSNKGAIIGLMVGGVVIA
Description: (§1) Each well of a […] MaxiSorp plate (Nunc) was coated with 50 μL aliquots of 200 ng/mL of 1-42, pE3-42 or 4-42 amyloid peptides in PBS and incubated overnight at 4° C. The wells were washed 3× with PBS-T (0.1% Tween20) and blocked with 150 μL of 5% milk in PBS/0.05% Tween20 per well. The wells were then incubated at RT with shaking for 1 hour and washed 3× with PBS-T (0.1% Tween20). 50 μl of primary antibody serially diluted in 1% milk PBS/0.05% Tween20 was added to the wells of the assay plate using a 3-fold dilution series starting from ˜100 μg/mL. The incubation and washing step was then repeated. Anti-human kappa chain HRP (Sigma A7164-1 mL) was diluted 4,000-fold in PBS/1% milk/0.05% Tween20 and 50 μl added to each well. The incubation and washing step was repeated and then 75 μL of K-Blue substrate (Neogen) was added per well and incubated for 5-10 minutes at RT. The reaction was stopped by adding 50 μl of RED STOP solution (Neogen) to each well and the optical density was read at 650 nm.

amyloid peptide Aβ4-42 [3] = target: T1, amyloid peptide Aβ4-42; assay: ELISA, plate coated with Anaspec Aβ4-42, antibody titrated after incubation in PBS or in mouse, human or cynomolgus serum, blank-subtracted OD650 [continued]
amyloid peptide AβpE3-42 [4] = target: T2, amyloid peptide AβpE3-42; assay: ELISA, plate coated with AβpE3-42, antibody titrated, blank-subtracted OD650
Description: as §1
Therefore, F67Y, Y68N, I39W and an additional variant that combined F67Y and Y68N were generated (Table 2) and binding to Aβ1-42, AβpE3-42 and 4-42 was investigated. […] Five additional variants of the heavy chain were generated with the following mutations, S53M, S53H, R100H, L103R and L103H (Table 4b). In addition, five variants of the light chain were also generated RKF (N92W), RKG (N92Y), RKH (N92H), RKI (L94R) and RIC (L94H).

amyloid peptide AβpE3-42 [5] = target: T2, amyloid peptide AβpE3-42; assay: ELISA, plate coated with AβpE3-42, antibody titrated, A650nm
Description: as §1

amyloid peptide AβpE3-42 [6] = target: T2, amyloid peptide AβpE3-42; assay: ELISA, plate coated with AβpE3-42, antibody titrated, signal as % Max
Description: as §1

amyloid peptide AβpE3-42 [7] = target: T2, amyloid peptide AβpE3-42; assay: ELISA, plate coated with AβpE3-42 (target by legend paragraph 24), antibody titrated, A650nm
Description: as §1

amyloid peptide Aβ4-42 [8] = target: T1, amyloid peptide Aβ4-42; assay: assay not given; binding to Aβ1-42, AβpE3-42 and 4-42 was investigated
amyloid peptide AβpE3-42 [9] = target: T2, amyloid peptide AβpE3-42; assay: as above
amyloid peptide Aβ4-42 [10] = target: T1, amyloid peptide Aβ4-42; assay: ELISA, plate coated with Aβ4-42 from PSL, antibody titrated, A650nm
amyloid peptide AβpE3-42 [11] = target: T2, amyloid peptide AβpE3-42; assay: ELISA, plate coated with AβpE3-42 from PSL, antibody titrated, A650nm
amyloid peptide AβpE3-42 [12] = target: T2, amyloid peptide AβpE3-42; assay: as above; remark: listed apart in the source
Description: as §1

amyloid peptide AβpE3-42 [13] = target: T2, amyloid peptide AβpE3-42; assay: ELISA, plate coated with AβpE3-42, antibody titrated, A650nm; remark: listed apart in the source
Description: as §1

amyloid peptide AβpE3-42 [14] = target: T2, amyloid peptide AβpE3-42; assay: ELISA, plate coated with AβpE3-42 from California peptides (Cal Hu), antibody titrated, A650nm
amyloid peptide Aβ1-42 = target: T3, amyloid peptide Aβ1-42 (UniProt P05067 672-713); assay: ELISA, plate coated with Aβ1-42 (target by legend paragraph 23), antibody titrated, signal as % Max; the value lies beyond the highest concentration shown
T3 construct: domain: Aβ1-42; Bought synthetic peptide; also called amyloid full length peptide Aβ1-42
T3 sequence (P05067 672-713 limits assumed): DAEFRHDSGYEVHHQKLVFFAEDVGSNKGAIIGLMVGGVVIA

amyloid peptide Aβ4-42 [15] = target: T1, amyloid peptide Aβ4-42; assay: SPR, Biacore T200; SPR (Biacore T200), apparent KD comparable to the mouse antibody

binding result (amyloid peptide Aβ4-42 [1]): binds
binding result (amyloid peptide AβpE3-42 [2]): binds
B1: humanized NT4X-167 RHS/RKA (antibody, mouse IgG1, V domains shown)
VH: QVQLQESGPGLVKPSETLSLTCTVSGFSLSSYGIHWIRQPPGKGLEWIGVMWSGGITDFYAAFISRVTISRDTSKNQVSLKLSSVTAADTAVYYCARGSRYALDYWGQGTLVTVSS
VL: DIQMTQSPSSLSASVGDRVTITCRASQDISNYLNWYQQKPGKAPKLLIYYTSRLHSGVPSRFSGSGSGTDFTLTISSLQPEDFATYYCQQGNTLPPTFGGGTKLEIK
notes: also called SA; RHS/KA

binding result (amyloid peptide Aβ4-42 [3]): binds
binding result (amyloid peptide AβpE3-42 [4]): binds
B2: humanized NT4X-167 RHS7/RKA (antibody, mouse IgG1, V domains shown)
VH: B1 VH with D58N, A61P, A62S, F63L, I64K
VL: B1 VL
notes: also called S7A

binding result (amyloid peptide AβpE3-42 [5]): binds
B3: humanized NT4X-167 RHL/RKA (antibody, mouse IgG1, V domains shown)
VH: B1 VH with L29I, S30T, I48L, V67L, L82M
VL: B1 VL

binding result (amyloid peptide AβpE3-42 [5]): binds
B4: humanized NT4X-167 RHM/RKA (antibody, mouse IgG1, V domains shown)
VH: B1 VH with I48L, V67L, L82M
VL: B1 VL

binding result (amyloid peptide AβpE3-42 [5]): binds
B5: humanized NT4X-167 RHK/RKA (antibody, mouse IgG1, V domains shown)
VH: B1 VH with F27G, S30T, I48L, V67L, L82M
VL: B1 VL

EC50 (amyloid peptide AβpE3-42 [6]): 0.341 mg/L
EC50 (amyloid peptide AβpE3-42 [7]): 3.86 mg/L
B6: humanized NT4X-167 RHB/RKA (antibody, mouse IgG1, V domains shown)
VH: B1 VH with S30T, I48L, V67L, L82M
VL: B1 VL
notes: also called BA

binding result (amyloid peptide Aβ4-42 [8]): binds
binding result (amyloid peptide AβpE3-42 [9]): binds
B7: humanized NT4X-167 RHS71/RKA (antibody, V domains shown)
VH: B1 VH with D58N, F59Y, A61P, A62S, F63L, I64K
VL: B1 VL
notes: also called RHS71 (F67Y) with RKA

binding result (amyloid peptide AβpE3-42 [5]): binds
B8: humanized NT4X-167 RHN/RKA (antibody, mouse IgG1, V domains shown)
VH: B1 VH with S30T, V67L, L82M
VL: B1 VL

binding result (amyloid peptide AβpE3-42 [4]): no binding (tested: about 120 ug/ml)
B9: (rcNT4X_S8A) R1 (antibody, V domains shown)
VH: B1 VH with H35S, D58N, A61P, A62S, F63L, I64K
VL: B1 VL
notes: also called RHS8/RKA

binding result (amyloid peptide AβpE3-42 [2]): binds
B10: humanized NT4X-167 RHT/RKA (antibody, mouse IgG1, V domains shown)
VH: B1 VH with S30T
VL: B1 VL
notes: also called TA

binding result (amyloid peptide AβpE3-42 [5]): binds
B11: humanized NT4X-167 RHR/RKA (antibody, mouse IgG1, V domains shown)
VH: B1 VH with S30T, I48L, V67L
VL: B1 VL

binding result (amyloid peptide AβpE3-42 [4]): no binding (tested: about 120 ug/ml)
B12: (rcNT4X_S6A) R1 (antibody, V domains shown)
VH: B1 VH with H35S
VL: B1 VL
notes: also called RHS6/RKA

binding result (amyloid peptide AβpE3-42 [5]): binds
B13: humanized NT4X-167 RHQ/RKA (antibody, mouse IgG1, V domains shown)
VH: B1 VH with S30T, I48L, V67L, V78F, L82M
VL: B1 VL

binding result (amyloid peptide AβpE3-42 [5]): binds
B14: humanized NT4X-167 RHP/RKA (antibody, mouse IgG1, V domains shown)
VH: B1 VH with S30T, I48L, V67L, R71V, L82M
VL: B1 VL

EC50 (amyloid peptide AβpE3-42 [6]): 0.377 mg/L
EC50 (amyloid peptide AβpE3-42 [7]): 2.74 mg/L
B15: humanized NT4X-167 RHB/RKB (antibody, mouse IgG1, V domains shown)
VH: B1 VH with S30T, I48L, V67L, L82M
VL: B1 VL with K42G, F71Y, Y87F
notes: also called HB/KB

binding result (amyloid peptide AβpE3-42 [5]): binds
B16: humanized NT4X-167 RHO/RKA (antibody, mouse IgG1, V domains shown)
VH: B1 VH with S30T, I48L, L82M
VL: B1 VL

binding result (amyloid peptide Aβ4-42 [10]): binds
EC50 (amyloid peptide AβpE3-42 [11]): 0.0249 µM
EC50 (amyloid peptide AβpE3-42 [12]): 0.0249 µM
EC50 (read off the curve) (amyloid peptide AβpE3-42 [13]): ~0.5 mg/L
EC50 (read off the curve) (amyloid peptide AβpE3-42 [5]): ~0.5 mg/L
EC50 (amyloid peptide AβpE3-42 [7]): 2.4 mg/L
EC50 (amyloid peptide AβpE3-42 [14]): 0.0157 µM
B17: murine NT4X-167 antibody (antibody, V domains shown)
VH: QVQLKQSGPGLVQPSQSLSITCTVSGFSLTSYGIHWVRQSPGKGLEWLGVMWSGGITDFYAAFISRLSISRDISKSQVFFKMNSLQADDTAIYYCARGSRYALDYWGQGTSVSVSS
VL: DIQMTQTTSSLSASLGDRVTISCRASQDISNYLNWYQQKPDGTVKLLIYYTSRLHSGVPSRFSGSGSGTDYSLTISNLEQEDIATYFCQQGNTLPPTFGGGTKLEIK
notes: Mouse hybridoma antibody; also called original mouse NT4X antibody

EC50 (amyloid peptide AβpE3-42 [6]): 0.118 mg/L
EC50 (amyloid peptide AβpE3-42 [12]): 0.0471 µM
EC50 (read off the curve) (amyloid peptide AβpE3-42 [13]): ~0.07 mg/L
EC50 (amyloid peptide Aβ1-42): 214 mg/L
EC50 (read off the curve) (amyloid peptide AβpE3-42 [5]): ~0.07 mg/L
EC50 (amyloid peptide AβpE3-42 [7]): 0.227 mg/L
binding result (amyloid peptide Aβ4-42 [15]): binds
B18: chimeric NT4X-167 antibody (antibody, V domains shown)
VH: B17 VH
VL: B17 VL
notes: also called chimeric positive control antibody
